Source: PMC10548220, “Development and evaluation of nanobody tracers for noninvasive nuclear imaging of the immune-checkpoint TIGIT” (Frontiers in Immunology, 2023)
Numbering of substitutions follows the chain as printed. Names and notes keep the numbering of the source.

B1: anti-hTIGIT nanobody 16920 (VHH)
VHH: QVQLQESGGGFVQAGGSLRLSCAASSISSIYAMDWYRQAPGKQREFVAGITSGGTTNYGSTVKGRFTISRDESKNTVDLQMNSLKPEDSAVYVCRATISWKIYSGQGTQVTVSS
notes: Cloned into pHen6 after PCR with primers A6E and PMCF; source: E. coli WK6, periplasmic extract, purified (Ni-NTA, SEC); not shown: His6, C-terminal, kept
B2: anti-hTIGIT Nb 16920 (VHH)
VHH: B1 VHH
notes: nanobody from an immunized llama; Cloned in pHen6 after PCR with primers A6E and PMCF; source: E. coli WK6, periplasmic extract, purified (Ni-NTA, SEC); not shown: His6, C-terminal, kept
B3: anti-hTIGIT nanobody 16925 (VHH)
VHH: QVQLQESGGGLVQAGGSLRLSCAASSISSINAMGWYRQPPGKQRELVARITFGHSTNYADSVKGRFTISRDNAKSTVYLQMNSLKPEDTAVYYCNADLLLNTQAIRAWGQGTQVTVSS
notes: Cloned into pHen6 after PCR with primers A6E and PMCF; labelled with 99mTc on the His6 tag for the in vivo work; also called lead hTIGIT Nb; source: E. coli WK6, periplasmic extract, purified (Ni-NTA, SEC); not shown: His6, C-terminal, kept
B4: anti-hTIGIT Nb 16925 (VHH)
VHH: B3 VHH
notes: as for B2
B5: single-chain variable fragment derived from the monoclonal antibody Vibostolimab (scFv, V domains shown)
VH: EVQLVQSGAEVKKPGSSVKVSCKASGYTFSSYVMHWVRQAPGQGLEWIGYIDPYNDGAKYAQKFQGRVTLTSDKSTSTAYMELSSLRSEDTAVYYCARGGPYGWYFDVWGQGTTVTVSS
VL: DIQMTQSPSSLSASVGDRVTITCRASEHIYSYLSWYQQKPGKVPKLLIYNAKTLAEGVPSRFSGSGSGTDFTLTISSLQPEDVATYYCQHHFGSPLTFGQGTRLEIK
notes: VH of the mAb Vibostolimab (Merck); (G4S)3 linker, written out from the printed formula; VL of the mAb Vibostolimab (Merck); Cloned into pHen6 by Gibson assembly; also called scFv Vibo; Vibo scFv; source: E. coli WK6, periplasmic extract, purified (Ni-NTA, SEC), produced in the same way as the Nbs; not shown: His6, C-terminal, kept
B6: single-chain variable fragment derived from the monoclonal antibody Vibostolimab (scFv, V domains shown)
VH: B5 VH
VL: B5 VL
notes: variable domain of the heavy chain (VH) of Vibostolimab (Merck); (G4S)3 linker; variable domain of the light chain (VL) of Vibostolimab (Merck); Cloned in pHen6; also called ScFv Vibo; Vibo scFv; source: E. coli WK6, periplasmic extract, purified (Ni-NTA, SEC), produced in the same way as the Nbs; not shown: His6, C-terminal, kept
B7: anti-hTIGIT nanobody 17037 (VHH)
VHH: QVQLQESGGGLVQAGGSLRLSCAASSTLSIDDMGWYRQAPEKHREFVATISRGGSTNYAASVKGRFTISRDNAKNTVFLQMNNLKSEDTAVYYCRATSTWRYYWAQGTQVTVSS
notes: Cloned into pHen6 after PCR with primers A6E and PMCF; also called Nb 17037; source: E. coli WK6, periplasmic extract, purified (Ni-NTA, SEC); not shown: His6, C-terminal, kept
B8: anti-hTIGIT Nb 17037 (VHH)
VHH: B7 VHH
notes: as for B2
B9: anti-mTIGIT nanobody 16966 (VHH)
VHH: QVQLQESGGGSVRPGESLRLSCAASSDSSITGMDWYRQAPGKQREWVATITRNNITIYGASVKGRFTVSRDNVKNTWYLQMNSLKPEDTAVYYCTYRGNWGQGTQVTVSS
notes: Cloned into pHen6 after PCR with primers A6E and PMCF; labelled with 99mTc on the His6 tag for the in vivo work; also called Nb 16966; source: E. coli WK6, periplasmic extract, purified (Ni-NTA, SEC); not shown: His6, C-terminal, kept
B10: anti-mTIGIT nanobody 16988 (VHH)
VHH: B9 VHH with S11L, R13Q, P14A, E16G, D27V, T56A, I57M, N72D, V73A, R97H
notes: Cloned into pHen6 after PCR with primers A6E and PMCF; labelled with 99mTc on the His6 tag for the in vivo work; also called lead anti-mTIGIT Nb; source: E. coli WK6, periplasmic extract, purified (Ni-NTA, SEC); not shown: His6, C-terminal, kept
B11: anti-mTIGIT Nb 16966 (VHH)
VHH: B9 VHH
notes: as for B2
B12: anti-mTIGIT Nb 16988 (VHH)
VHH: B9 VHH with S11L, R13Q, P14A, E16G, D27V, T56A, I57M, N72D, V73A, R97H
notes: as for B2
B13: anti-mTIGIT Nb 16972 (VHH)
VHH: B9 VHH with S11L, R13Q, P14T, D27V, T56A, I57M, V73A
notes: as for B2
B14: anti-mTIGIT nanobody 16972 (VHH)
VHH: B9 VHH with S11L, R13Q, P14T, D27V, T56A, I57M, V73A
notes: Cloned into pHen6 after PCR with primers A6E and PMCF; also called Nb 16972; source: E. coli WK6, periplasmic extract, purified (Ni-NTA, SEC); not shown: His6, C-terminal, kept
B15: anti-hTIGIT nanobody 17018 (VHH)
VHH: QVQLQESGGGLVQAGGSLRLSCTASSIFSINAMGWYRQTPGKQRELVARITNGSSTNYADSVKGRFTISRDNAKNTVYLQMNSLKPEDTAVYYCHTDLLLEVGAMRYWGQGTQVTVSS
notes: Cloned into pHen6 after PCR with primers A6E and PMCF; also called Nb 17018; source: E. coli WK6, periplasmic extract, purified (Ni-NTA, SEC); not shown: His6, C-terminal, kept
B16: anti-hTIGIT Nb 17018 (VHH)
VHH: B15 VHH
notes: as for B2
B17: anti-mTIGIT Nb 16979 (VHH)
VHH: QVQLQESGGGLVQAGESLRLSCAASIIVSDNIMAWYRQSPGKQREIVALISSTGTINYVDSVKGRFTISRDNAKNTLNLQMTKLKPEDTAVYYCSGRTLRVYWGQGTQVTVSS
notes: as for B2
B18: anti-hTIGIT nanobody 17010 (VHH)
VHH: QVQLQESGGGSVQTGGSLRLSCAASNGFSINAMGWYRQSPGKQRELVARITSGSSTNYTNYADSVKGRFTISRDNAKNTGYLEMNLLKPEDTAVYYCHADVLLGGLQGLIQRFWGQGTQVTVSS
notes: Cloned into pHen6 after PCR with primers A6E and PMCF; also called Nb 17010; source: E. coli WK6, periplasmic extract, purified (Ni-NTA, SEC); not shown: His6, C-terminal, kept
B19: anti-hTIGIT Nb 17010 (VHH)
VHH: B18 VHH
notes: as for B2

How the values were obtained:
CD155 (Homo sapiens) = CD155 (Homo sapiens) (UniProt P15151); conditions: cited from earlier work
[1] = biological target: T1, recombinant human TIGIT-Fc carrier-free protein (Homo sapiens (Human)., UniProt Q495A1); assay: SPR; Biacore T200; recombinant m/hTIGIT-Fc immobilised on a CM5 chip; Nbs injected, eight two-fold dilutions from 200 nM, 10 µl/min, 25°C; HBS pH 7.4 (0.01 M HEPES, 0.15 M NaCl, 3 mM EDTA, 0.005% Tween 20); fit 1:1 binding with drift and RI2; conditions: both partners purified
T1 construct: T cell Ig and ITIM domain receptor (TIGIT), human; also called hTIGIT-Fc; recombinant hTIGIT; source: bought: Biolegend

[2] = biological target: T2, recombinant human TIGIT-Fc carrier-free protein (Homo sapiens (Human)., UniProt Q495A1-1); assay: SPR; Biacore T200; m/hTIGIT-Fc (10 µg/mL in 10 mM Na-acetate pH 4.0) immobilised on a CM5 chip; Nbs or scFv injected in two-fold dilutions from 200 nM, 10 µl/min, 25°C; HBS pH 7.4 (0.01 M HEPES, 0.15 M NaCl, 3 mM EDTA, 0.005% Tween 20); fit 1:1 binding with drift and RI2; conditions: both partners purified
T2 construct: T cell Ig and ITIM domain receptor (TIGIT), human; also called hTIGIT-Fc; human TIGIT recombinant protein; source: bought: Biolegend (Cat. No. 768608)

[3] = biological target: T3, recombinant mouse TIGIT-Fc carrier-free protein (Mus musculus, UniProt A0A0B4J1G6); assay: SPR; Biacore T200; recombinant m/hTIGIT-Fc immobilised on a CM5 chip; Nbs injected, eight two-fold dilutions from 200 nM, 10 µl/min, 25°C; HBS pH 7.4 (0.01 M HEPES, 0.15 M NaCl, 3 mM EDTA, 0.005% Tween 20); fit 1:1 binding with drift and RI2; conditions: both partners purified
T3 construct: T cell Ig and ITIM domain receptor (TIGIT), mouse; also called mTIGIT-Fc; recombinant mTIGIT; source: bought: Biolegend
T3 sequence (P86176 29-148): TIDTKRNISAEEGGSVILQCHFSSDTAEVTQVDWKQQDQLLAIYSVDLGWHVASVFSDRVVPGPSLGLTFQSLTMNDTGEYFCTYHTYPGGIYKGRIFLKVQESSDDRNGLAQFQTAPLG

[4] = biological target: T4, recombinant mouse TIGIT-Fc carrier-free protein (Mus musculus, UniProt A0A0B4J1G6); assay: SPR; Biacore T200; m/hTIGIT-Fc (10 µg/mL in 10 mM Na-acetate pH 4.0) immobilised on a CM5 chip; Nbs or scFv injected in two-fold dilutions from 200 nM, 10 µl/min, 25°C; HBS pH 7.4 (0.01 M HEPES, 0.15 M NaCl, 3 mM EDTA, 0.005% Tween 20); fit 1:1 binding with drift and RI2; conditions: both partners purified
T4 construct: T cell Ig and ITIM domain receptor (TIGIT), mouse; also called mTIGIT-Fc; mouse TIGIT recombinant protein; source: bought: Biolegend (Cat. No. 771808)
T4 sequence (P86176 29-148): as above

[5] = biological target: recombinant mouse TIGIT-Fc carrier-free protein (mouse) (UniProt P86176); assay: SPR; Biacore T200; recombinant m/hTIGIT-Fc immobilised on a CM5 chip; Nbs injected, eight two-fold dilutions from 200 nM, 10 µl/min, 25°C; HBS pH 7.4 (0.01 M HEPES, 0.15 M NaCl, 3 mM EDTA, 0.005% Tween 20); fit 1:1 binding with drift and RI2
Sequence of recombinant mouse TIGIT-Fc carrier-free protein (mouse) (P86176 29-148): as above

T1 sequence (Q495A1 22-141): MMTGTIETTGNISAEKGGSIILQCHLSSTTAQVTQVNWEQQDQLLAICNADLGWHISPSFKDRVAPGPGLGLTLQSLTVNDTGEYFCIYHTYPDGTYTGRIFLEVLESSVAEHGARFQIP
T2 sequence (Q495A1 22-141): as above
Sequence of CD155 (Homo sapiens) (P15151 21-343): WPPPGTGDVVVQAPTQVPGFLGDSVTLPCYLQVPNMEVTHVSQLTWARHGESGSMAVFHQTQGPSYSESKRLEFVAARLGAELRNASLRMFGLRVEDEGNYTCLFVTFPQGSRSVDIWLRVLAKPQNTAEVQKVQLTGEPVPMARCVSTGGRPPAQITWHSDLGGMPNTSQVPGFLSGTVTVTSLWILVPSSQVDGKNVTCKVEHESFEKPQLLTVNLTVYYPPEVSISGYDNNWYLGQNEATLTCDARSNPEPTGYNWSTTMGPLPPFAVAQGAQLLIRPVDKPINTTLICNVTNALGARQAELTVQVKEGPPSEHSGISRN

Row | Molecule | Kd [1] [nM] | koff [2] [s⁻¹] | kon [2] [M⁻¹ s⁻¹] | other results
1 | TIGIT (from UniProt Q495A1) |  |  |  | Kd (CD155 (Homo sapiens)): 2 nM
2 | B1 | 0.753 ± 0.002 |  |  | 
3 | B2 |  | 0.00426 | 5.66e+06 | 
4 | B3 | 1.974 ± 0.004 |  |  | 
5 | B4 |  | 0.000911 | 462000 | 
6 | B5 | 0.996 ± 0.004 |  |  | 
7 | B6 |  | 0.000827 | 830000 | 
8 | B7 | 0.116 ± 0.001 |  |  | 
9 | B8 |  | 0.00157 | 1.36e+07 | 
10 | B9 |  |  |  | Kd [3]: 0.157 ± 0.001 nM
11 | B10 |  |  |  | Kd [3]: 0.104 ± 0.001 nM
12 | B11 |  |  |  | koff [4]: 0.00257 s⁻¹; kon [4]: 1.64e+07 M⁻¹ s⁻¹
13 | B12 |  |  |  | koff [4]: 0.000738 s⁻¹; kon [4]: 7.06e+06 M⁻¹ s⁻¹
14 | B13 |  |  |  | koff [4]: 0.00113 s⁻¹; kon [4]: 7.46e+06 M⁻¹ s⁻¹
15 | B14 |  |  |  | Kd [3]: 0.152 ± 0.001 nM
16 | B15 | 0.47 ± 0.002 |  |  | 
17 | B16 |  | 0.000496 | 1.06e+06 | 
18 | B17 |  |  |  | koff [4]: 0.114 s⁻¹; kon [4]: 134000 M⁻¹ s⁻¹; Kd [5]: 846 nM
19 | B18 | 0.345 ± 0.001 |  |  | 
20 | B19 |  | 0.000803 | 2.33e+06 | 
